Data: patent publication US20260092116A1 (DARTSBIO PHARMACEUTICALS, published 2026)
Values belong to the binder of their own block, whether it stands above or below them.

Tests used:
[1] = target: T1, his-tagged human B7H3 antigen protein (human, UniProt Q5ZPR3 29-461, limits assumed); test: binding ELISA, plate coated with his-tagged B7H3 at 2 ug/ml
T1 construct: also called B7H3-his; CD276; not shown: his tag
T1 sequence (looked up): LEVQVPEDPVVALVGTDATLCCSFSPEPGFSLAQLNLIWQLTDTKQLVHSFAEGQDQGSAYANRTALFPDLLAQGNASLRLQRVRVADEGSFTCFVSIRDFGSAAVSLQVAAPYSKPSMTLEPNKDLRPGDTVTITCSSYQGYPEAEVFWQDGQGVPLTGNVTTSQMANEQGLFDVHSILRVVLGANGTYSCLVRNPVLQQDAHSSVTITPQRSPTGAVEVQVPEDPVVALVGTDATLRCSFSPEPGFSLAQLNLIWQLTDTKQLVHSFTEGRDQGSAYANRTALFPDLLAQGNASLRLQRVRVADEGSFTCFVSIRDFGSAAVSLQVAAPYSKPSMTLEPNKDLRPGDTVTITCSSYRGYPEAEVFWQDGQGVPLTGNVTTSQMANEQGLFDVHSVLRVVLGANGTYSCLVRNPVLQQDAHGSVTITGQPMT
Protocol: (§1) A 96-well ELISA plate was coated with 2 μg/ml of his-tagged PDL1 or B7H3 antigen protein at 4° C. overnight, and 100 μl of Casein blocking solution was added to each well the next day for blocking at 37° C. for 1 hour. […] After incubation at 37° C. for 1 hour, unbound antibodies were washed off with 0.1% PBST, and bound antibodies were detected using horseradish peroxidase (HRP)-conjugated goat anti-human IgG (H+L) antibody (Jackson ImmunoResearch, USA), and 50 μl of 3,3′,5,5′-tetramethylbenzidine substrate (TMB) was used for color development. After standing for 5 minutes, 50 μl of 2 M sulfuric acid was added to stop the color development, and then the absorbance was detected using a SpectraMax M5e (Molecular Devices) microplate reader at OD450 nm. The antibody concentration was plotted against the OD450 reading using a 4-parameter fitting method, and the EC₅₀ was calculated.

[2] = target: T2, B7H3 antigen (huB7H3 antigen) (human, UniProt Q5ZPR3 29-461, limits assumed); test: BLI, VHH-Fc (100 nM) captured on Protein A probe, B7H3 antigen from 200 nM in 2-fold dilutions
T2 sequence (looked up): T1 sequence (looked up)
Protocol: The above phage clones were sequenced to obtain the B7H3 VHH gene sequence, and its C-terminus was fused with the human Fc protein gene to construct and express B7H3-Fc. 100nM of B7H3 VHH-Fc was captured by the biolayer interferometry method using the Protein A probe and bound to B7H3 antigen with an initial concentration of 200 nM, a 2-fold dilution. The KD value of the antibody binding to antigen was calculated.

[3] = target: T3, his-tagged human PDL1 antigen protein (human, UniProt Q9NZQ7 19-238); test: binding ELISA, plate coated with his-tagged PDL1 at 2 ug/ml
T3 construct: also called PDL1-his; not shown: his tag
Protocol: as §1

[4] = target: T4, biotinylated PDL1 antigen (human, UniProt Q9NZQ7 19-238, biotinylated (sites not given)); test: flow cytometry, blocking of biotinylated PDL1 (50 nM) binding to CHO-PD1 cells
T4 construct: also called human PDL1 (biotinylated)
Protocol: The mixed solution was then incubated with the cells at 4° C. for 45 minutes, and unbound antigens were washed off with PBS.
The cells were then fluorescently stained with PE-streptavidin. Finally, the mean fluorescence intensity (MFI) of the PE channel in the flow cytometer was read, the antibody concentration was plotted against MFI, and the IC₅₀ of the antibody was calculated using a four-parameter fitting.

[5] = target: T3, his-tagged human PDL1 antigen protein; test: ELISA on coated PDL1-his, bispecific antibody after 1 hour at 60°C
Protocol: as §1

[6] = target: T1, his-tagged human B7H3 antigen protein; test: ELISA on coated B7H3-his, bispecific antibody after 1 hour at 60°C
Protocol: as §1

[7] = target: T3, his-tagged human PDL1 antigen protein; test: ELISA on coated PDL1-his, bispecific antibody not heat-treated (4°C)
Protocol: as §1

[8] = target: T1, his-tagged human B7H3 antigen protein; test: ELISA on coated B7H3-his, bispecific antibody not heat-treated (4°C)
Protocol: as §1

[9] = target: T1, his-tagged human B7H3 antigen protein; test: BLI (Octet), antibody on Protein A probe, B7H3-his from 200 nM in 2-fold dilutions
Protocol: (§2) Kon and Koff values were calculated using the software provided by the supplier to obtain the KD value of the antibody.

[10] = target: T3, his-tagged human PDL1 antigen protein; test: BLI (Octet), antibody on Protein A probe, PDL1-his from 200 nM in 2-fold dilutions
Protocol: as §2

T3 sequence (Q9NZQ7 19-238 limits assumed): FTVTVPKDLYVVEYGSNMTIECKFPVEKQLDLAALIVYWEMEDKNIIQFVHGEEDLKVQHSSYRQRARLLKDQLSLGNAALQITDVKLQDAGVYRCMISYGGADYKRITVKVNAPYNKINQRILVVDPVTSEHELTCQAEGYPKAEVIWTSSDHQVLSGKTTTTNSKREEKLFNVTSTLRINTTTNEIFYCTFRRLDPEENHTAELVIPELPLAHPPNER
T4 sequence (Q9NZQ7 19-238 limits assumed): as above

B2: PDL1 monoclonal antibody (antibody, human IgG1, kappa, V domains shown)
VH: QVQLVQSGAEVKKPGASVKVSCKASGYTFTTFGVHWVRQAPGKGLEWVGIIWPGGNTNYNSALMSRVTITADESTSTAYMELSSLRSEDTAVYYCARENYGRAMDYWGQGTTVTVSS
VL: DIQMTQSPSSLSASVGDRVTISCRASQSINTYLHWYQQKLGQAPRLLIYYASQSISGVPSRFSGSGSGTDFTLTINSLEAEDAATYYCQNGHSFPLTFGAGTKVEIKR
notes: Parental humanized IgG1 of the bispecific antibody; also called PDL1 hIgG1 humanized monoclonal antibody
- EC50 [3]: 0.441 nM
- IC50 [4]: 94.2 nM

B3: Enoblituzumab (MGA271) (antibody, V domains shown)
VH: EVQLVESGGGLVQPGGSLRLSCAASGFTFSSFGMHWVRQAPGKGLEWVAYISSDSSAIYYADTVKGRFTISRDNAKNSLYLQMNSLRDEDTAVYYCGRGRENIYYGSRLDYWGQGTTVTVSS
VL: DIQLTQSPSFLSASVGDRVTITCKASQNVDTNVAWYQQKPGKAPKALIYSASYRYSGVPSRFSGSGSGTDFTLTISSLQPEDFATYYCQQYNNYPFTFGQGTKLEIKR
- EC50 [1]: 0.0548 nM

Other lines, results leading:

- EC50 [1]: 0.0251 nM
- Kd [2]: 3.24 nM
B1: B7H3 VHH-Fc (humanized anti-B7H3 VHH 75-16 fused to human Fc) (Fc fusion)
chain: DVQLQESGGGLVQAGGSLRLSCTASGYTLSTIWIGWFRQAPGKGLEGVAAIYIGSGATYYVDSVKGRFTISQDNAKNTVYLQMNSLKPEDTAMYYCAATGGTVGSMVRFSPVGDFGYWGQGTQVTVSS
notes: also called B7H3-Fc; not shown: human Fc fused to the C-terminus of the VHH

- EC50 [1]: 0.0411 nM
- EC50 [3]: 0.306 nM
- IC50 [4]: 106 nM
- EC50 (read off the curve) [5]: ~0.04 nM
- EC50 (read off the curve) [6]: ~0.02 nM
- EC50 (read off the curve) [7]: ~0.04 nM
- EC50 (read off the curve) [8]: ~0.02 nM
- Kd [9]: 8.11 nM
- Kd [10]: 0.585 nM
B4: B7H3/PDL1 bispecific antibody (bispecific antibody, human IgG1, kappa)
heavy: not shown
light: DIQMTQSPSSLSASVGDRVTISCRASQSINTYLHWYQQKLGQAPRLLIYYASQSISGVPSRFSGSGSGTDFTLTINSLEAEDAATYYCQNGHSFPLTFGAGTKVEIKRTVAAPSVFIFPPSDEQLKSGTASVVCLLNNFYPREAKVQWKVDNALQSGNSQESVTEQDSKDSTYSLSSTLTLSKADYEKHKVYACEVTHQGLSSPVTKSFNRGEC
notes: Anti-PDL1 hIgG1 with one anti-B7H3 VHH (75-16) at the C-terminus of each heavy chain's Fc; also called IgG-VHH2
